In patent US20210170043A1, “DC-SIGN ANTIBODY CONJUGATES COMPRISING STING AGONISTS” (NOVARTIS AG, priority 2018, published 2021):

Tests used:
[1] = system: CD11c+ dendritic cells of Tg+ mice; assay: Dendritic cell activation in DC-SIGN Tg+ mice (spleen, flow cytometry); type: in vivo, mouse
Procedure: Spleens were harvested 24 hours post dose and analyzed by flow cytometry to look at CD11c+ dendritic cells.

[2] = system: M2 macrophages; assay: Activation of human M2 macrophages (M2 moMacs) in vitro, flow cytometry; type: cell-based; conditions: 24 hours incubation
Procedure: Primary human monocytes were isolated from a leukapheresis using magnetic bead selection and frozen for storage in liquid nitrogen. For monocyte DC (moDC) differentiation, cells were thawed and incubated in media containing GM-CSF and IL-4 for 7 days. For M2 macrophages (M2 moMacs), cells were thawed and incubated for 6 days with M-CSF containing media and then polarized with the addition of IL-4 for 24 hours. After the differentiation process for both moDC and moMacs, media was washed off and replaced with fresh media containing isotype control (DAPA version of Trastuzumab) C1, or DC-SIGN antibody C1 conjugates. Free T1-1 compound was used as a control. 24 hours after incubation with indicated compounds, cells were evaluated by flow cytometry for activation.
Peripheral blood Leukopaks from normal human donors were obtained from HemaCare. […]
Human CD14+ monocytes were isolated and frozen as described. […] Cells were counted and plated at 40,000-80,000 cells per well in a 384 well flat bottom tissue culture plate (Greiner). […]
24 hours after activation with compounds, cells were evaluated by flow cytometry according to the described protocol using antibody clones described in flow cytometry protocol section. DC-SIGN+CD11c+ HLA-DR+ cells were identified and assessed for CD86 expression and levels of DC-SIGN.

[3] = system: transgenic mice expressing human DC-SIGN gene (Tg+); assay: Plasma cytokine and chemokine levels in human DC-SIGN transgenic mice; type: in vivo, mouse; conditions: 6 hours post dose
Procedure: Blood was collected at 6 hours post dose to analyze plasma cytokine and chemokine levels and spleens were analyzed at 24 hours post dose to look at dendritic cell activation.
Mice were bled 6 hours after dosing to collect plasma for analysis of circulating cytokine levels.
Plasma was collected at indicated timepoints and analyzed with a Mouse IP-10 Platinum ELISA kit (eBioscience Affymetrix). Plasma was diluted 1:100 and the protocol was followed according to the manufacturer's recommendations. Data was collected using an Enspire spectro-photometer using […] as the primary wavelength.
Plasma was collected at indicated timepoints and analyzed with a Mouse IFN-beta ELISA kit (R&D Systems) according to the manufacturer's recommendations. Data was collected using an Enspire spectro-photometer using […] as the primary wavelength.
Plasma was collected at indicated timepoints and analyzed with a mouse Proinflammatory Panel 1 (mouse) Kit V-PLEX™ 10 plex from MesoScale Discovery. 25 μL of plasma per sample was used and protocol was followed according to the manufacturer's recommendations. Data were collected and analyzed using a Sector Imager 6000.
Human DC-SIGN transgenic mice (Tg+) (Schaefer et al., J. Immunol. (2008) 180 (10) 6836-6845) were bred to Signr1 deficient mice (−/− or KO) (Orr et al., Glycobiology (2013) 23(3): 363-380). Human DC-SIGN expression was checked using PCR to genotype the mice. Human DC-SIGN Tg+ Signr1−/− mice or human DC-SIGN Tg− Signr1−/− mice were tested with compounds as indicated in the above examples.

B1: 2B2 (DAPA) C1 (conjugate)
heavy: QVQLVQSGAEVKKPGASVKVSCKASGYTFTNYGINWVRQAPGQRLEWMGYIYIGNDYTEYNERFKGRVTITSDTSASTAYMELSSLRSEDTAVYYCARLYYGSSLYSYAMDYWGQGTTVTVSSASTKGPSVFPLAPSSKSTSGGTAALGCLVKDYFPCPVTVSWNSGALTSGVHTFPAVLQSSGLYSLSSVVTVPSSSLGTQTYICNVNHKPSNTKVDKRVEPKSCDKTHTCPPCPAPELLGGPSVFLFPPKPKDTLMISRTPEVTCVVVAVSHEDPEVKFNWYVDGVEVHNAKTKPREEQYNSTYRVVSVLTVLHQDWLNGKEYKCKVSNKALAAPIEKTISKAKGQPREPQVYTLPPSREEMTKNQVSLTCLVKGFYPCDIAVEWESNGQPENNYKTTPPVLDSDGSFFLYSKLTVDKSRWQQGNVFSCSVMHEALHNHYTQKSLSLSPGK
light: DIVMTQSPLSLPVTPGEPASISCRSSKSLLHSSGNTYLYWFLQKPGQSPQLLISRMSNLASGVPDRFSGSGSGTDFTLKISRVEAEDVGVYYCMQHLEYPYTFGGGTKVEIKRTVAAPSVFIFPPSDEQLKSGTASVVCLLNNFYPREAKVQWKVDNALQSGNSQESVTEQDSKDSTYSLSSTLTLSKADYEKHKVYACEVTHQGLSSPVTKSFNRGEC
B1 was tested, and the “CD80 upregulation on dendritic cells (DC activation)” value [1] was “significantly upregulated”, the “CD86 upregulation on dendritic cells (DC activation)” value [1] was “significantly upregulated” and the “downregulation of DC-SIGN on macrophages” value [2] was “induced downregulation of DC-SIGN”. For the same molecule, the “macrophage activation as measured by CD86 upregulation” value [2] was “induced monocyte dendritic cell and macrophage activation”, the “plasma IL-12p70” value ([3]; 1 mg/kg i.v. (Fab2 1.33 mg/kg)) was “increased” and the “plasma IP-10” value ([3]; 1 mg/kg i.v. (Fab2 1.33 mg/kg, Fab 1.3 mg/kg)) was “increased”. For the same molecule, the “plasma TNFα” value ([3]; 1 mg/kg i.v.) was “increased”.
